Test [1] concerns embryonic rat dopaminergic neurons. The settings on record: in vitro; cited from earlier work.
The test system of test [2] is adult rodent hippocampal neural progenitors. Nature of the test: Immunocytochemical staining (TuJ1, TH, GFAP) of neural progenitors after 17-day culture with growth factors. It counts as cell-based, rat. On the procedure: Adult rodent hippocampal neural progenitors were isolated from adult rat brain following previously published methods [Svendson et al., Nat Rev Genet., 5(2) 136-44 (2004)]. Isolated cells were seeded at 1,000 cells/cm^2 into laminin-coated 24 well tissue culture plates (Becton Dickson, Bedford, Mass.).
Seeded cells were initially grown in a supplemented neuralbasal medium (NBM). The NBM was Neurobasal-A media (Invitrogen, Carlsbad, Calif.) with B27 supplement (Invitrogen, Carlsbad, Calif.), and L-glutamine (4 milliMolar) (Sigma, St. Louis, Mo.). Supplemented NBM also contains epidermal growth factor (EGF) (Sigma, St. Louis, Mo.), at 20 nanograms/milliliter, and basic fibroblast growth factor, (bFGF) (Peprotech, Rocky Hill, N.J.), at 20 nanograms/milliliter).
Set one of cells was cultured in supplemented NBM for 17 days. Set two of cells was initially cultured in supplemented NBM for 4 days. The supplemented NBM then was removed from the culture plates and cells were cultured in NBM containing MP52 (Biopharm GmbH, Heidelberg, Germany) at 20 nanograms/milliliter for a period of 13 days. Set three of cells was initially cultured in supplemented NBM for 10 days. The supplemented NBM then was removed from the culture plate, and cells were cultured in NMB containing Sonic Hedgehog, (SHH) (Sigma, St. Louis, Mo.), at 200 nanograms/milliliter, and fibroblast growth factor 8 (FGF8) (Peprotech, Rocky Hill, N.J.), at 100 nanograms/milliliter. Set four of cells was initially cultured in supplemented NBM for 10 days. The supplemented NBM then was removed from the culture plates and cells were cultured in NBM containing MP52 at 20 nanograms/milliliter, SHH at 200 nanograms/milliliter, and FGF8 at 100 nanograms/milliliter).
At the end of the 17-day experimental period, all cultures were fixed with 4 percent paraformaldehyde (Sigma, St. Louis, Mo.) and immunocytochemical staining was performed to evaluate expression of Beta Tubulin III (TuJ1), glial fibrilary acidic protein (GFAP), and tyrosine hydroxylase (TH). […]
Following immunocytochemical staining, fluorescence was visualized using an Olympus inverted epifluorescent microscope and images were taken with a digital camera and ImagePro software (Media Cybernetics, Silver Spring, Md.). To further quantify the response, fields of cells were counted at a magnification power of 200× to examine the percentage of positive cells for each marker and compared to control samples grown in NBM alone. A minimum of 1,000 cells were counted per condition or, if less, the total number of cells observed in that condition.
The percentage of cells positive for a given marker was determined by dividing the number of positive cells for a particular marker by the total number of nucleated cells determined by DAPI staining.

Test [3] has as its system human umbilical cord cells. The experiment in a line: Quantitative PCR of Nurr1 and TH mRNA in umbilical postpartum cells after dopaminergic differentiation. It counts as cell-based. On the procedure:
Postpartum cells were isolated from an umbilical cord and placental digestion as described in U.S. patent application Ser. Nos. 10/887,012 and 10/877,446. Briefly, human umbilical cord and placental cells were isolated from explants of postpartum tissue.
Isolated umbilical and placental cells were seeded at 1,000 cells/cm^2 into laminin coated 24 well tissue culture plates (Corning, N.Y.). Cells were initially seeded in maintenance media (control) as described in nonprov serial no. After 4 days in maintenance media, cells were split into four groups. The first set of cells was switched to NBM supplemented with EGF (20 nanograms/milliliter) and bFGF (20 nanograms/milliliter) and grown for 13 days. Sets two through four were switched to NBM supplemented with EGF (20 nanograms/milliliter) and bFGF (20 nanograms/milliliter) and grown for 6 days. The NBM supplemented with EGF and […] was then removed and cells were cultured in NBM containing; MP52 plus SHH plus FGF8 (set two); MP52 plus SHH plus FGF8 plus retinoic acid (RA) (set three); or MP52 plus RA (set four) for a further 7 days of culture.
At the end of the 17-day experimental period, RNA was isolated from the induced cell population using an Rneasy kit (RNeasy Mini kit, Qiagen, Valencia, Calif.). […]

Test [4] has as its system adult rat nigrostriatal dopaminergic system. The following applies: intraparenchymal injection; cited from earlier work.
Where [5] appears, read: immunostain, end of 17-day culture, positive cells / DAPI nucleated cells.

B1: MP52: human recombinant GDF5 protein, 120 amino acid residues with alanine at the N-terminus, from Biopharm GmbH (protein, UniProt P43026 382-501, looked up)
Growth/differentiation factor …: APLATRQGKRPSKNLKARCSRKALHVNFKDMGWDDWIIAPLEYEAFHCEGLCEFPLRSHLEPTNHAVIQTLMNSMDPESTPPTCCVPTRLSPISILFIDSANNVVYKQYEDMVVESCGCR
As to B1, in test [1], the “survival-promoting action on dopaminergic neurons against MPP+” value is recorded as “survival-promoting actions”. In addition, the “differentiation towards an astrocytic phenotype (GFAP expression), in words” value in test [2] (immunocytochemistry) was “increased expression”. In test [3] (postpartum cell cultures (umbilicus and placenta), compared to control (NBM plus EGF plus FGF8)), the “Nurr1 expression, in words” value is “induced”. Besides, the “Tyrosine hydroxylase (TH) expression, in words” value in test [3] (umbilical cell cultures, compared to control) is on record as “induced”.

B2: NBM + MP52: neurobasal medium containing MP52 at 20 nanograms/milliliter (protein, UniProt P43026 382-501, looked up)
Growth/differentiation factor …: B1 Growth/differentiation factor …
modifications: in neurobasal medium, 20 ng/mL
notes: neurobasal medium containing MP52 at 20 nanograms/milliliter
B2: in test [2] (setting [5]), the “Percentage of cells staining positive for GFAP” value is on record as “≧80%”, the “Percentage of cells staining positive for TH” value amounted to 6.1% and the “Percentage of cells staining positive for TuJ1” value amounted to 12.5%.

B3: GDF5: growth and differentiation factor protein of the TGF-beta superfamily (literature studies) (protein, UniProt P43026 382-501, looked up)
Growth/differentiation factor …: B1 Growth/differentiation factor …
Consider B3, for which, in test [4], the “protection of nigrostriatal dopaminergic system from death induced by 6OHDA lesion” value is given as “protects”.

These data come from patent US8846394B2, “Treatment of neurological deficits in the striatum or substanta nigra pars compacta” (Ethicon, Inc., priority 2004, dated 2014).
